In the supplement of paper PMC9112550, “Optimization of the antimicrobial peptide Bac7 by deep mutational scanning” (BMC Biology, 2022):

Test system: Escherichia coli TOP10
Experiment: shrunken log2 fold change of peptide-encoding DNA abundance (4.5 h post-induction vs induction); higher = less antimicrobial activity (less host growth inhibition)
Conditions: time post-induction: 4.5 h; library: site-saturation at positions 5, 18, 19, 20
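Further: peptides expressed intracellularly from a pBAD plasmid library in pooled LB shake-flask culture, induced with 0.3% L-arabinose, DNA abundance read by NGS, three biological replicates, DESeq2 with apeglm shrinkage.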

Row | Sequence | shrunken log2 fold change
1 | RRIRNRPPRLPRPRPRPHMCPRP | -0.0575
2 | RRIRFRPPRLPRPRPRPVEAPRP | -0.103
3 | RRIRNRPPRLPRPRPRPNCNPRP | -0.549
4 | RRIRHRPPRLPRPRPRPAVTPRP | -0.1
5 | RRIRNRPPRLPRPRPRPSRNPRP | 0.0074
6 | RRIRQRPPRLPRPRPRPPLIPRP | 0.0445
7 | RRIRLRPPRLPRPRPRPRSRPRP | 0.394
8 | RRIRVRPPRLPRPRPRPANNPRP | -0.272
9 | RRIRHRPPRLPRPRPRPDTNPRP | 0.102
10 | RRIRNRPPRLPRPRPRPRGLPRP | 0.342
11 | RRIRKRPPRLPRPRPRPEMWPRP | 0.719
12 | RRIRSRPPRLPRPRPRPMWVPRP | -0.0635
13 | RRIRIRPPRLPRPRPRPVISPRP | -0.43
14 | RRIRLRPPRLPRPRPRPKTHPRP | -0.0161
15 | RRIRSRPPRLPRPRPRPGDAPRP | 0.298
16 | RRIRRRPPRLPRPRPRPCGFPRP | 0.265
17 | RRIRARPPRLPRPRPRPRRFPRP | 0.603
18 | RRIRWRPPRLPRPRPRPVHVPRP | 0.109
19 | RRIRKRPPRLPRPRPRPKHLPRP | -0.334
20 | RRIRSRPPRLPRPRPRPHFQPRP | -0.275
21 | RRIRPRPPRLPRPRPRPMYQPRP | -0.207
22 | RRIRLRPPRLPRPRPRPMMQPRP | -0.223
23 | RRIRDRPPRLPRPRPRPMWGPRP | -0.0471
24 | RRIRIRPPRLPRPRPRPLCIPRP | -0.484
25 | RRIRIRPPRLPRPRPRPIPEPRP | -0.158

Row | Sequence | shrunken log2 fold change
26 | RRIRTRPPRLPRPRPRPVVMPRP | -0.0861
27 | RRIRWRPPRLPRPRPRPASQPRP | 0.271
28 | RRIRERPPRLPRPRPRPPYCPRP | -0.275
29 | RRIRCRPPRLPRPRPRPGTWPRP | 0.011
30 | RRIRSRPPRLPRPRPRPACEPRP | 0.233
31 | RRIRKRPPRLPRPRPRPNPPPRP | 0.0342
32 | RRIRNRPPRLPRPRPRPTEQPRP | -0.209
33 | RRIRMRPPRLPRPRPRPFRAPRP | 0.452
34 | RRIRIRPPRLPRPRPRPIVNPRP | -0.67
35 | RRIRHRPPRLPRPRPRPMKNPRP | 0.0372
36 | RRIRRRPPRLPRPRPRPGPVPRP | 0.332
37 | RRIRERPPRLPRPRPRPHRFPRP | -0.169
38 | RRIRKRPPRLPRPRPRPVMTPRP | 0.0351
39 | RRIRQRPPRLPRPRPRPGYPPRP | -0.181
40 | RRIRGRPPRLPRPRPRPKYLPRP | 0.32
41 | RRIRHRPPRLPRPRPRPFREPRP | -0.0591
42 | RRIRNRPPRLPRPRPRPCDCPRP | 0.0143
43 | RRIRKRPPRLPRPRPRPCSNPRP | -0.0227
44 | RRIRTRPPRLPRPRPRPFNEPRP | -0.311
45 | RRIRGRPPRLPRPRPRPQILPRP | -0.0843
46 | RRIRSRPPRLPRPRPRPFNEPRP | -0.19
47 | RRIRPRPPRLPRPRPRPEVNPRP | 0.188
48 | RRIRPRPPRLPRPRPRPEQGPRP | -0.178
49 | RRIRERPPRLPRPRPRPWYCPRP | 0.00607
50 | RRIRRRPPRLPRPRPRPNTFPRP | 0.085

Row | Sequence | shrunken log2 fold change
51 | RRIRVRPPRLPRPRPRPQFPPRP | -0.28
52 | RRIRFRPPRLPRPRPRPPMDPRP | -0.155
53 | RRIRVRPPRLPRPRPRPSFWPRP | -0.0205
54 | RRIRWRPPRLPRPRPRPFHNPRP | -0.392
55 | RRIRKRPPRLPRPRPRPSSHPRP | -0.163
56 | RRIRHRPPRLPRPRPRPSKNPRP | -0.163
57 | RRIRFRPPRLPRPRPRPRKCPRP | -0.0611
58 | RRIRIRPPRLPRPRPRPTFGPRP | -0.28
59 | RRIRTRPPRLPRPRPRPSMLPRP | -0.204
60 | RRIRWRPPRLPRPRPRPCKGPRP | -0.186
61 | RRIRSRPPRLPRPRPRPRPKPRP | 0.518
62 | RRIRVRPPRLPRPRPRPWIYPRP | 0.0875
63 | RRIRTRPPRLPRPRPRPQPEPRP | 0.0514
64 | RRIRWRPPRLPRPRPRPRQMPRP | 0.0196
65 | RRIRTRPPRLPRPRPRPSAWPRP | 0.0388
66 | RRIRLRPPRLPRPRPRPAWYPRP | 0.0232
67 | RRIRLRPPRLPRPRPRPVMKPRP | -0.13
68 | RRIRKRPPRLPRPRPRPGGIPRP | 0.569
69 | RRIRIRPPRLPRPRPRPDASPRP | -0.00609
70 | RRIRMRPPRLPRPRPRPSQHPRP | 0.136
71 | RRIRQRPPRLPRPRPRPWMHPRP | 0.0573
72 | RRIRQRPPRLPRPRPRPHIIPRP | -0.362
73 | RRIRVRPPRLPRPRPRPYQEPRP | 0.00202
74 | RRIRTRPPRLPRPRPRPSWCPRP | -0.322
75 | RRIRFRPPRLPRPRPRPVIYPRP | -0.588

Row | Sequence | shrunken log2 fold change
76 | RRIRERPPRLPRPRPRPTINPRP | -0.399
77 | RRIRTRPPRLPRPRPRPEHRPRP | -0.0227
78 | RRIRIRPPRLPRPRPRPVMIPRP | -0.00671
79 | RRIRFRPPRLPRPRPRPTANPRP | -0.0711
80 | RRIRGRPPRLPRPRPRPMVTPRP | 1.29
81 | RRIRHRPPRLPRPRPRPAMDPRP | -0.221
82 | RRIRHRPPRLPRPRPRPDRHPRP | -0.159
83 | RRIRNRPPRLPRPRPRPAAPPRP | 0.331
84 | RRIRMRPPRLPRPRPRPEATPRP | 4.04
85 | RRIRCRPPRLPRPRPRPHLPPRP | -0.195
86 | RRIRCRPPRLPRPRPRPQFLPRP | -0.79
87 | RRIRNRPPRLPRPRPRPKPCPRP | 0.159
88 | RRIRLRPPRLPRPRPRPTNKPRP | -0.264
89 | RRIRKRPPRLPRPRPRPQRWPRP | 0.0222
90 | RRIRDRPPRLPRPRPRPYMPPRP | -0.517
91 | RRIRVRPPRLPRPRPRPFQPPRP | -0.152
92 | RRIRIRPPRLPRPRPRPQLRPRP | -0.203
93 | RRIRDRPPRLPRPRPRPKVHPRP | -0.216
94 | RRIRTRPPRLPRPRPRPIKKPRP | -0.0742
95 | RRIRLRPPRLPRPRPRPTAQPRP | 0.104
96 | RRIRQRPPRLPRPRPRPKVCPRP | -0.193
97 | RRIRRRPPRLPRPRPRPWRHPRP | 0.0972
98 | RRIRFRPPRLPRPRPRPYVRPRP | -0.0985
99 | RRIRSRPPRLPRPRPRPSMIPRP | -0.625
100 | RRIRGRPPRLPRPRPRPRFLPRP | 0.448

Row | Sequence | shrunken log2 fold change
101 | RRIRSRPPRLPRPRPRPPLDPRP | 0.289
102 | RRIRRRPPRLPRPRPRPAEIPRP | 1.1
103 | RRIRQRPPRLPRPRPRPSTPPRP | -0.311
104 | RRIRERPPRLPRPRPRPMYHPRP | -0.594
105 | RRIRLRPPRLPRPRPRPYSCPRP | -0.458
106 | RRIRSRPPRLPRPRPRPQVHPRP | -0.012
107 | RRIRVRPPRLPRPRPRPIDKPRP | -0.471
108 | RRIRNRPPRLPRPRPRPWGVPRP | 0.112
109 | RRIRQRPPRLPRPRPRPKTCPRP | -0.0119
110 | RRIRLRPPRLPRPRPRPDERPRP | 0.0169
111 | RRIRNRPPRLPRPRPRPLGFPRP | 0.0608
112 | RRIRVRPPRLPRPRPRPSFIPRP | -0.749
113 | RRIRQRPPRLPRPRPRPHMSPRP | -0.28
114 | RRIRLRPPRLPRPRPRPFHMPRP | -0.16
115 | RRIRVRPPRLPRPRPRPYETPRP | 0.0231
116 | RRIRRRPPRLPRPRPRPYCDPRP | -0.0241
117 | RRIRFRPPRLPRPRPRPPLDPRP | 0.461
118 | RRIRWRPPRLPRPRPRPVNPPRP | 0.0699
119 | RRIRFRPPRLPRPRPRPFTEPRP | -0.869
120 | RRIRERPPRLPRPRPRPPLWPRP | 0.779
121 | RRIRERPPRLPRPRPRPMCGPRP | -0.0439
122 | RRIRCRPPRLPRPRPRPVHVPRP | -0.496
123 | RRIRCRPPRLPRPRPRPAVNPRP | -0.386
124 | RRIRNRPPRLPRPRPRPEPDPRP | 0.0698
125 | RRIRPRPPRLPRPRPRPIIYPRP | -0.256

Row | Sequence | shrunken log2 fold change
126 | RRIRPRPPRLPRPRPRPFRVPRP | 0.0659
127 | RRIRKRPPRLPRPRPRPPHPPRP | 0.672
128 | RRIRGRPPRLPRPRPRPTMAPRP | 1.24
129 | RRIRCRPPRLPRPRPRPYTEPRP | -1.42
130 | RRIRKRPPRLPRPRPRPEWHPRP | 0.125
131 | RRIRYRPPRLPRPRPRPSEMPRP | -0.765
132 | RRIRHRPPRLPRPRPRPVTIPRP | -0.311
133 | RRIRCRPPRLPRPRPRPTPFPRP | 0.207
134 | RRIRKRPPRLPRPRPRPGFCPRP | 0.243
135 | RRIRLRPPRLPRPRPRPKSAPRP | 0.139
136 | RRIRERPPRLPRPRPRPRQHPRP | -0.0319
137 | RRIRLRPPRLPRPRPRPHSKPRP | -0.129
138 | RRIRNRPPRLPRPRPRPNKQPRP | -0.0266
139 | RRIRTRPPRLPRPRPRPQREPRP | -0.0725
140 | RRIRCRPPRLPRPRPRPDPVPRP | 0.205
141 | RRIRQRPPRLPRPRPRPWAGPRP | 0.0868
142 | RRIRFRPPRLPRPRPRPSGDPRP | -0.202
143 | RRIRPRPPRLPRPRPRPTTSPRP | 0.181
144 | RRIRWRPPRLPRPRPRPKNTPRP | -0.127
145 | RRIRWRPPRLPRPRPRPFFPPRP | -0.0359
146 | RRIRYRPPRLPRPRPRPLILPRP | -0.767
147 | RRIRDRPPRLPRPRPRPSRQPRP | -0.12
148 | RRIRARPPRLPRPRPRPDPAPRP | 1.3
149 | RRIRWRPPRLPRPRPRPRHVPRP | -0.0116
150 | RRIRCRPPRLPRPRPRPHNVPRP | -0.194
